From patent publication US20260167699A1 (Chugai, published 2026)

B1: GpH7-A5/GpH7-B3 variant V266_08L/GpL16-k0 (antibody, human IgG1, kappa)
heavy 1: not shown
heavy 2: not shown
light: DIVMTQSPLSLPVTPGEPASISCQASESLVHSNRNTYLHWYLQKPGQSPQLLIYKVSNRFSGVPDRFSGSGSGTDFTLKISRVEAEDVGVYYCSQNTHVPPTFGQGTKVEIERTVAAPSVFIFPPSDEQLKSGTASVVCLLNNFYPREAKVQWKVDNALQSGNSQESVTEQDSKDSTYSLSSTLTLSKADYEKHKVYACEVTHQGLSSPVTKSFNRGEC
notes: copies: 1 + 1 + 2
B2: GpH7-A5/GpH7-B3 variant Y300_10E/GpL16-k0 (antibody, human IgG1, kappa)
heavy 1: not shown
heavy 2: not shown
light: B1 light
notes: copies: 1 + 1 + 2
B3: GpH7-A5/GpH7-B3 variant Y300_01G/GpL16-k0 (antibody, human IgG1, kappa)
heavy 1: not shown
heavy 2: not shown
light: B1 light
notes: copies: 1 + 1 + 2
B4: GpH7-A5/GpH7-B3 variant Y296_02A/GpL16-k0 (antibody, human IgG1, kappa)
heavy 1: not shown
heavy 2: not shown
light: B1 light
notes: copies: 1 + 1 + 2
B5: GpH7-A5/GpH7-B3 variant Y296_01G/GpL16-k0 (antibody, human IgG1, kappa)
heavy 1: not shown
heavy 2: not shown
light: B1 light
notes: copies: 1 + 1 + 2
B6: GpH7-A5/GpH7-B3 variant T335_15Y/GpL16-k0 (antibody, human IgG1, kappa)
heavy 1: not shown
heavy 2: not shown
light: B1 light
notes: copies: 1 + 1 + 2
B7: GpH7-A5/GpH7-B3 variant Y300_16H/GpL16-k0 (antibody, human IgG1, kappa)
heavy 1: not shown
heavy 2: not shown
light: B1 light
notes: copies: 1 + 1 + 2
B8: GpH7-A5/GpH7-B3 variant Y300_11K/GpL16-k0 (antibody, human IgG1, kappa)
heavy 1: not shown
heavy 2: not shown
light: B1 light
notes: copies: 1 + 1 + 2
B9: GpH7-A5/GpH7-B3 variant Y296_20W/GpL16-k0 (antibody, human IgG1, kappa)
heavy 1: not shown
heavy 2: not shown
light: B1 light
notes: copies: 1 + 1 + 2
B10: GpH7-A5/GpH7-B3 variant Y300_19Q/GpL16-k0 (antibody, human IgG1, kappa)
heavy 1: not shown
heavy 2: not shown
light: B1 light
notes: copies: 1 + 1 + 2
B11: GpH7-A5/GpH7-B3 variant Y300_07I/GpL16-k0 (antibody, human IgG1, kappa)
heavy 1: not shown
heavy 2: not shown
light: B1 light
notes: copies: 1 + 1 + 2
B12: GpH7-A5/GpH7-B3 variant Y300_06M/GpL16-k0 (antibody, human IgG1, kappa)
heavy 1: not shown
heavy 2: not shown
light: B1 light
notes: copies: 1 + 1 + 2
B13: GpH7-A5/GpH7-B3 variant Y296_07I/GpL16-k0 (antibody, human IgG1, kappa)
heavy 1: not shown
heavy 2: not shown
light: B1 light
notes: copies: 1 + 1 + 2
B14: GpH7-A5/GpH7-B3 variant Y296_09D/GpL16-k0 (antibody, human IgG1, kappa)
heavy 1: not shown
heavy 2: not shown
light: B1 light
notes: copies: 1 + 1 + 2
B15: GpH7-A5/GpH7-B3 variant Y296_13S/GpL16-k0 (antibody, human IgG1, kappa)
heavy 1: not shown
heavy 2: not shown
light: B1 light
notes: copies: 1 + 1 + 2
B16: GpH7-A5/GpH7-B3 variant Y300_02A/GpL16-k0 (antibody, human IgG1, kappa)
heavy 1: not shown
heavy 2: not shown
light: B1 light
notes: copies: 1 + 1 + 2
B17: GpH7-A5/GpH7-B3 variant A327_09D/GpL16-k0 (antibody, human IgG1, kappa)
heavy 1: not shown
heavy 2: not shown
light: B1 light
notes: He Ab; copies: 1 + 1 + 2
B18: GpH7-A5/GpH7-B3 variant Y296_10E/GpL16-k0 (antibody, human IgG1, kappa)
heavy 1: not shown
heavy 2: not shown
light: B1 light
notes: copies: 1 + 1 + 2
B19: GpH7-A5/GpH7-B3 variant T335_13S/GpL16-k0 (antibody, human IgG1, kappa)
heavy 1: not shown
heavy 2: not shown
light: B1 light
notes: copies: 1 + 1 + 2
B20: GpH7-A5/GpH7-B3 variant Y296_16H/GpL16-k0 (antibody, human IgG1, kappa)
heavy 1: not shown
heavy 2: not shown
light: B1 light
notes: copies: 1 + 1 + 2
B21: GpH7-A5/GpH7-B3 variant A327_05P/GpL16-k0 (antibody, human IgG1, kappa)
heavy 1: not shown
heavy 2: not shown
light: B1 light
notes: He Ab; copies: 1 + 1 + 2
B22: GpH7-A5/GpH7-B3 variant V266_07I/GpL16-k0 (antibody, human IgG1, kappa)
heavy 1: not shown
heavy 2: not shown
light: B1 light
notes: copies: 1 + 1 + 2
B23: GpH7-A5/GpH7-B3 variant Y296_11K/GpL16-k0 (antibody, human IgG1, kappa)
heavy 1: not shown
heavy 2: not shown
light: B1 light
notes: copies: 1 + 1 + 2
B24: GpH7-A5/GpH7-B3 variant T335_20W/GpL16-k0 (antibody, human IgG1, kappa)
heavy 1: not shown
heavy 2: not shown
light: B1 light
notes: copies: 1 + 1 + 2
B25: GpH7-A5/GpH7-B3 variant T335_18N/GpL16-k0 (antibody, human IgG1, kappa)
heavy 1: not shown
heavy 2: not shown
light: B1 light
notes: copies: 1 + 1 + 2
B26: GpH7-A5/GpH7-B3 variant Y296_03V/GpL16-k0 (antibody, human IgG1, kappa)
heavy 1: not shown
heavy 2: not shown
light: B1 light
notes: copies: 1 + 1 + 2
B27: GpH7-A5/GpH7-B3 variant Y296_12R/GpL16-k0 (antibody, human IgG1, kappa)
heavy 1: not shown
heavy 2: not shown
light: B1 light
notes: copies: 1 + 1 + 2
B28: GpH7-A5/GpH7-B3 variant Y300_18N/GpL16-k0 (antibody, human IgG1, kappa)
heavy 1: not shown
heavy 2: not shown
light: B1 light
notes: copies: 1 + 1 + 2

Tests used:
FcγRIIIa = target: T1, FcγRIIIa (human, UniProt P08637 17-208); test: SPR (Biacore);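 also: antibody variants captured on an SPR sensor chip, with FcγRIIIa passed over as analyte in HBS-EP+ buffer at 25 °C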
T1 construct: extracellular domain; also called 3a; FcγRIIIa extracellular domain
T1 sequence (P08637 other isoform, or with tags, fused parts or gaps): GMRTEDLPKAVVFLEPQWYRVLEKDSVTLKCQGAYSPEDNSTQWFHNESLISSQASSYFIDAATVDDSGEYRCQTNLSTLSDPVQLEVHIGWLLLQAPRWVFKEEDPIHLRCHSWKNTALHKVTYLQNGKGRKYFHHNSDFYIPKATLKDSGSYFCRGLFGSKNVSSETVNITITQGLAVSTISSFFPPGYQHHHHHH

[1] = target: T2, FcγRIIIa extracellular domain, C-terminal His tag (human, UniProt P08637 17-208); test: SPR, binding activity relative to GpH7-A5/GpH7-B3/GpL16-k0 (=100)
T2 construct: extracellular domain; also called 3a
T2 sequence (P08637 other isoform, or with tags, fused parts or gaps): as above

Row | Binder | He/Con 3a (FcγRIIIa) | He/Con 3a [1] [%]
1 | B1 | 117 % of GpH7-A5/GpH7-B3/GpL16-k0 | –
2 | B2 | 113 % of GpH7-A5/GpH7-B3/GpL16-k0 | –
3 | B3 | 88.6 % of GpH7-A5/GpH7-B3/GpL16-k0 | –
4 | B4 | 66.3 % of GpH7-A5/GpH7-B3/GpL16-k0 | –
5 | B5 | 51.3 % of GpH7-A5/GpH7-B3/GpL16-k0 | –
6 | B6 | 99.7 % of GpH7-A5/GpH7-B3/GpL16-k0 | –
7 | B7 | 102 % of GpH7-A5/GpH7-B3/GpL16-k0 | –
8 | B8 | 63.7 % of GpH7-A5/GpH7-B3/GpL16-k0 | –
9 | B9 | 127 % of GpH7-A5/GpH7-B3/GpL16-k0 | –
10 | B10 | 105 % of GpH7-A5/GpH7-B3/GpL16-k0 | –
11 | B11 | 103 % of GpH7-A5/GpH7-B3/GpL16-k0 | –
12 | B12 | 106 % of GpH7-A5/GpH7-B3/GpL16-k0 | –
13 | B13 | 75.8 % of GpH7-A5/GpH7-B3/GpL16-k0 | –
14 | B14 | 89 % of GpH7-A5/GpH7-B3/GpL16-k0 | –
15 | B15 | 58.1 % of GpH7-A5/GpH7-B3/GpL16-k0 | –
16 | B16 | 88.1 % of GpH7-A5/GpH7-B3/GpL16-k0 | –
17 | B17 | – | 86
18 | B18 | 76.8 % of GpH7-A5/GpH7-B3/GpL16-k0 | –
19 | B19 | 100 % of GpH7-A5/GpH7-B3/GpL16-k0 | –
20 | B20 | 69.1 % of GpH7-A5/GpH7-B3/GpL16-k0 | –
21 | B21 | – | 61.9
22 | B22 | 113 % of GpH7-A5/GpH7-B3/GpL16-k0 | –
23 | B23 | 53.3 % of GpH7-A5/GpH7-B3/GpL16-k0 | –
24 | B24 | 97.3 % of GpH7-A5/GpH7-B3/GpL16-k0 | –
25 | B25 | 94.4 % of GpH7-A5/GpH7-B3/GpL16-k0 | –
26 | B26 | 69.1 % of GpH7-A5/GpH7-B3/GpL16-k0 | –
27 | B27 | 66.5 % of GpH7-A5/GpH7-B3/GpL16-k0 | –
28 | B28 | 96 % of GpH7-A5/GpH7-B3/GpL16-k0 | –
